The data set “non-reducing PAGE” concerns the molecule itself. Briefly: non-reducing PAGE.
Data set [1] deals with the molecule itself. Nature of the data set: PAGE under denaturing, non-reducing conditions.

Several values for one entry are separate records, joined by “and”; a condition that tells them apart may be missing. Equal entries are not always repeated. Some results are limits rather than exact numbers.

B1: Granulin-3 (GRN-3) (natural protein, UniProt P28799 206-261, looked up)
chain: VMCPDARSRCPDGSTCCELPSGKWGCCPMPNATCCSDHLHCCPQDTVCDLIQSKCL
For the protein B1, the “stoichiometry N” value in the data set “non-reducing PAGE” is 2 and 3; in data set [1], at most 4.

B2: Granulin-5 (GRN-5) (natural protein, UniProt P28799 364-417, looked up)
chain: VPCDNVSSCPSSDTCCQLTSGEWGCCPIPEAVCCSDHQHCCPQGYTCVAEGQCQ
On to B2, for which, in the data set “non-reducing PAGE”, the binding result is listed as “binds”.

The values above are taken from publication PMC7933101 (Proteins, 2020).
